Source: patent publication US20240141042A1 (INNATE PHARMA, published 2024)
Numbering of substitutions follows the chain as printed. Numbers in names are those of the source.

B1: CD19-F4-NKp46-3 (bispecific antibody)
chain: DIQLTQSPASLAVSLGQRATISCKASQSVDYDGDSYLNWYQQIPGQPPKLLIYDASNLVSGIPPRFSGSGSGTDFTLNIHPVEKVDAATYHCQQSTEDPWTFGGGTKLEIKGGGGSGGGGSGGGGSQVQLQQSGAELVRPGSSVKISCKASGYAFSSYWMNWVKQRPGQGLEWIGQIWPGDGDTNYNGKFKGKATLTADESSSTAYMQLSSLASEDSAVYFCARRETTTVGRYYYAMDYWGQGTTVTVSSGGGSSAPELLGGPSVFLFPPKPKDTLMISRTPEVTCVVVDVSHEDPEVKFNWYVDGVEVHNAKTKPREEQYSSTYRVVSVLTVLHQDWLNGKEYKCKVSNKALPAPIEKTISKAKGQPREPQVYTLPPSREEMTKNQVSLTCLVKGFYPSDIAVEWESNGQPENNYKTTPPVLDSDGSFFLYSKLTVDKSRWQQGNVFSCSVMHEALHNHYTQKSLSLSPGGGGGSGGGGSGGGGSGQPREPQVYTLPPSREEMTKNQVSLTCLVKGFYPSDIAVEWESNGQPENNYKTTPPVLDSDGSFFLYSKLTVDKSRWQQGNVFSCSVMHEALHNHYTQKSLSLSPGSTGSEVQLQQSGPELVKPGASVKISCKTSGYTFTEYTMHWVKQSHGKSLEWIGGISPNIGGTSYNQKFKGKATLTVDKSSSTAYMELRSLTSEDSAVYYCARRGGSFDYWGQGTTLTVSSVEGGSGGSGGSGGSGGVDDIVMTQSPATLSVTPGDRVSLSCRASQSISDYLHWYQQKSHESPRLLIKYASQSISGIPSRFSGSGSGSDFTLSINSVEPEDVGVYYCQNGHSFPLTFGAGTKLELK
notes: Single chain with tandem CH3 and N297S
B2: CD19-F9A-NKp46-3 (bispecific antibody, human IgG1, kappa)
chain 1: not shown
chain 2: not shown
chain 3: DIVMTQSPATLSVTPGDRVSLSCRASQSISDYLHWYQQKSHESPRLLIKYASQSISGIPSRFSGSGSGSDFTLSINSVEPEDVGVYYCQNGHSFPLTFGAGTKLELKASTKGPSVFPLAPSSKSTSGGTAALGCLVKDYFPEPVTVSWNSGALTSGVHTFPAVLQSSGLYSLSSVVTVPSSSLGTQTYICNVNHKPSNTKVDKRVEPKSCDKTH
notes: Heterotrimer with monomeric Fc (tandem CH3, N297S) and wild-type hinge cysteines
B3: NKp46-1 (antibody, V domains shown)
VH: QVQLQQSGPELVKPGASVKMSCKASGYTFTDYVINWGKQRSGQGLEWIGEIYPGSGTNYYNEKFKAKATLTADKSSNIAYMQLSSLTSEDSAVYFCARRGRYGLYAMDYWGQGTSVTVSS
VL: DIQMTQTTSSLSASLGDRVTISCRASQDISNYLNWYQQKPDGTVKLLIYYTSRLHSGVPSRFSGSGSGTDYSLTINNLEQEDIATYFCQQGNTRPWTFGGGTKLEIK
notes: also called Antibody NKp46-1; parental human IgG1 chimeric antibody NKp46-1
B4: NKp46-9 (antibody, V domains shown)
VH: DVQLQESGPGLVKPSQSLSLTCTVTGYSITSDYAWNWIRQFPGNKLEWMGYITYSGSTNYNPSLKSRISITRDTSKNQFFLQLNSVTTEDTATYYCARCWDYALYAMDCWGQGTSVTVSS
VL: DIQMTQSPASLSASVGETVTITCRTSENIYSYLAWCQQKQGKSPQLLVYNAKTLAEGVPSRFSGSGSGTHFSLKINSLQPEDFGIYYCQHHYDTPLTFGAGTKLELK
notes: not in the list MOLECULES as an antibody; also called antibody NKp46-9; monoclonal antibody NKp46-9
B5: CD19-F1-NKp46-4 (bispecific antibody)
chain: DIQLTQSPASLAVSLGQRATISCKASQSVDYDGDSYLNWYQQIPGQPPKLLIYDASNLVSGIPPRFSGSGSGTDFTLNIHPVEKVDAATYHCQQSTEDPWTFGGGTKLEIKGGGGSGGGGSGGGGSQVQLQQSGAELVRPGSSVKISCKASGYAFSSYWMNWVKQRPGQGLEWIGQIWPGDGDTNYNGKFKGKATLTADESSSTAYMQLSSLASEDSAVYFCARRETTTVGRYYYAMDYWGQGTTVTVSSGGGSSAPELLGGPSVFLFPPKPKDTLMISRTPEVTCVVVDVSHEDPEVKFNWYVDGVEVHNAKTKPREEQYNSTYRVVSVLTVLHQDWLNGKEYKCKVSNKALPAPIEKTISKAKGQPREPQVYTKPPSREEMTKNQVSLSCLVKGFYPSDIAVEWESNGQPENNYKTTVPVLDSDGSFRLASYLTVDKSRWQQGNVFSCSVMHEALHNHYTQKSLSLSPGSTGSQVQLQQSAVELARPGASVKMSCKASGYTFTSFTMHWVKQRPGQGLEWIGYINPSSGYTEYNQKFKDKTTLTADKSSSTAYMQLDSLTSDDSAVYYCVRGSSRGFDYWGQGTLVTVSAVEGGSGGSGGSGGSGGVDDIQMIQSPASLSVSVGETVTITCRASENIYSNLAWFQQKQGKSPQLLVYAATNLADGVPSRFSGSGSGTQYSLKINSLQSEDFGIYYCQHFWGTPRTFGGGTKLEIK
notes: Single chain F1 format
B6: CD19-F1-NKp46-2 (bispecific antibody)
chain: DIQLTQSPASLAVSLGQRATISCKASQSVDYDGDSYLNWYQQIPGQPPKLLIYDASNLVSGIPPRFSGSGSGTDFTLNIHPVEKVDAATYHCQQSTEDPWTFGGGTKLEIKGGGGSGGGGSGGGGSQVQLQQSGAELVRPGSSVKISCKASGYAFSSYWMNWVKQRPGQGLEWIGQIWPGDGDTNYNGKFKGKATLTADESSSTAYMQLSSLASEDSAVYFCARRETTTVGRYYYAMDYWGQGTTVTVSSGGGSSAPELLGGPSVFLFPPKPKDTLMISRTPEVTCVVVDVSHEDPEVKFNWYVDGVEVHNAKTKPREEQYNSTYRVVSVLTVLHQDWLNGKEYKCKVSNKALPAPIEKTISKAKGQPREPQVYTKPPSREEMTKNQVSLSCLVKGFYPSDIAVEWESNGQPENNYKTTVPVLDSDGSFRLASYLTVDKSRWQQGNVFSCSVMHEALHNHYTQKSLSLSPGSTGSEVQLQESGPGLVKPSQSLSLTCTVTGYSITSDYAWNWIRQFPGNKLEWMGYITYSGSTSYNPSLESRISITRDTSTNQFFLQLNSVTTEDTATYYCARGGYYGSSWGVFAYWGQGTLVTVSAVEGGSGGSGGSGGSGGVDDIQMTQSPASLSASVGETVTITCRVSENIYSYLAWYQQKQGKSPQLLVYNAKTLAEGVPSRFSGSGSGTQFSLKINSLQPEDFGSYYCQHHYGTPWTFGGGTKLEIK
notes: Single chain F1 format; also called bi-specific antibody NKp46-2 (F1)
B7: CD19-F1-NKp46-3 (bispecific antibody)
chain: DIQLTQSPASLAVSLGQRATISCKASQSVDYDGDSYLNWYQQIPGQPPKLLIYDASNLVSGIPPRFSGSGSGTDFTLNIHPVEKVDAATYHCQQSTEDPWTFGGGTKLEIKGGGGSGGGGSGGGGSQVQLQQSGAELVRPGSSVKISCKASGYAFSSYWMNWVKQRPGQGLEWIGQIWPGDGDTNYNGKFKGKATLTADESSSTAYMQLSSLASEDSAVYFCARRETTTVGRYYYAMDYWGQGTTVTVSSGGGSSAPELLGGPSVFLFPPKPKDTLMISRTPEVTCVVVDVSHEDPEVKFNWYVDGVEVHNAKTKPREEQYNSTYRVVSVLTVLHQDWLNGKEYKCKVSNKALPAPIEKTISKAKGQPREPQVYTKPPSREEMTKNQVSLSCLVKGFYPSDIAVEWESNGQPENNYKTTVPVLDSDGSFRLASYLTVDKSRWQQGNVFSCSVMHEALHNHYTQKSLSLSPGSTGSEVQLQQSGPELVKPGASVKISCKTSGYTFTEYTMHWVKQSHGKSLEWIGGISPNIGGTSYNQKFKGKATLTVDKSSSTAYMELRSLTSEDSAVYYCARRGGSFDYWGQGTTLTVSSVEGGSGGSGGSGGSGGVDDIVMTQSPATLSVTPGDRVSLSCRASQSISDYLHWYQQKSHESPRLLIKYASQSISGIPSRFSGSGSGSDFTLSINSVEPEDVGVYYCQNGHSFPLTFGAGTKLELK
notes: Single chain F1 format; also called bi-specific antibody NKp46-3 (F1)

Biological target: T1, human FcRn (Example 10) (human, UniProt P55899 24-297; P61769 21-119, limits assumed)
T1 construct: Construct not described; Beta-2-microglobulin is not mentioned; also called recombinant FcRn proteins
T1 sequence (P55899 24-297 limits assumed, form in doubt, chain 1 of 2): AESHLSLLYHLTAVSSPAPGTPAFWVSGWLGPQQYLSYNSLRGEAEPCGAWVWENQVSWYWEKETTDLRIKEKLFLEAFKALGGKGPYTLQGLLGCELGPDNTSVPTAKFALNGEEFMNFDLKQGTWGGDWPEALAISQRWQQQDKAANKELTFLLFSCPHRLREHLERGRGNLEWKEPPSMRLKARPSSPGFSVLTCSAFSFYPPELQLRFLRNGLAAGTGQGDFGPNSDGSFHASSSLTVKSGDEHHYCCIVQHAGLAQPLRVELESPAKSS
T1 sequence (P61769 21-119 limits assumed, form in doubt, chain 2 of 2): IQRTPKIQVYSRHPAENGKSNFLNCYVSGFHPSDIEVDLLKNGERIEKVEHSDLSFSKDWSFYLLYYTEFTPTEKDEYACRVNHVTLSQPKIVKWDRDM
Assay: SPR, FcRn immobilized on CM5, Steady State

Binder	Kd [nM]
B1	712
B2	858

Biological target: T2, NKp46 mutant 19 (human, UniProt O76036 22-304)
T2 construct: Expressed in transfected HEK293T cells
T2 chain: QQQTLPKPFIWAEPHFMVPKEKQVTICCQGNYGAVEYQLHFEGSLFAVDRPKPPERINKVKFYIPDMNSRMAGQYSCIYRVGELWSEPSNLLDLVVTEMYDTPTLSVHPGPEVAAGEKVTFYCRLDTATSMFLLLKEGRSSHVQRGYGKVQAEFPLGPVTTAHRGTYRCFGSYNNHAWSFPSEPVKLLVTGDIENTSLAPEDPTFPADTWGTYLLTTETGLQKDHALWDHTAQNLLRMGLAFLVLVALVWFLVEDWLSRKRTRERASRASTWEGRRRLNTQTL
Assay: flow cytometry on HEK293T cells transfected with NKp46 mutant 19 (I135A, S136A), antibody titrated 0.001-1 ug/ml

Binder	binding result
B3	binds
B4	binds

Biological target: T3, NKp46 mutant Supp8 (human, UniProt O76036 22-304)
T3 construct: Expressed in transfected HEK293T cells; also called supplementary mutant Supp8
T3 chain: T2 chain with P111A, E112A, A114I, A115S
Assay: flow cytometry on HEK293T cells transfected with NKp46 mutant Supp8 (P132A, E133A; printed 'Mutant S8'), antibody titrated 0.001-1 ug/ml

Binder	binding result
B3	binds
B4	binds

Biological target: T4, Human NKp46 recombinant proteins (human, UniProt O76036 22-258)
T4 construct: also called recombinant human NKp46 proteins
Assay: SPR, bispecific captured on Protein-A chip, human NKp46 injected, 1:1 kinetic model
Protocol: SPR measurements were performed on a Biacore T100 apparatus (Biacore GE Healthcare) at 25° C. In all Biacore experiments HBS-EP+(Biacore GE Healthcare) and NaOH 10 mM served as running buffer and regeneration buffer respectively. Sensorgrams were analyzed with Biacore T100 Evaluation software. Protein-A was purchase from (GE Healthcare). Human NKp46 recombinant proteins were cloned, produced and purified at Innate Pharma.
Protein-A proteins were immobilized covalently to carboxyl groups in the dextran layer on a Sensor Chip CM5. The chip surface was activated with EDC/NHS (N-ethyl-N′-(3-dimethylaminopropyl) carbodiimidehydrochloride and N-hydroxysuccinimide (Biacore GE Healthcare)). Protein-A was diluted to 10 μg/ml in coupling buffer (10 mM acetate, pH 5.6) and injected until the appropriate immobilization level was reached (i.e. 2000 RU). Deactivation of the remaining activated groups was performed using 100 mM ethanolamine pH 8 (Biacore GE Healthcare).
Monovalent affinity study was done following a regular Capture-Kinetic protocol recommended by the manufacturer (Biacore GE Healthcare kinetic wizard). Seven serial dilutions of human NKp46 recombinant proteins, ranging from 6.25 to 400 nM were sequentially injected over the captured Bi-Specific antibodies and allowed to dissociate for 10 min before regeneration. The entire sensorgram sets were fitted using the 1:1 kinetic binding model.

Binder	Kd [nM]	koff [s⁻¹]	kon [M⁻¹ s⁻¹]
B5	4.85	0.000653	135000
B1	30	0.011	368000
B2	32	0.00669	207000
B6	8.93	0.00145	162000
B7	9.14	0.000644	70500
